Laboratory results published in paper PMC3667720.

Molecular target: β-actin (human (endogenous in MDA-MB-231)) (UniProt P60709)
Experiment: FRET or BRET

cofilin (from UniProt P23528 1-166) (natural protein)
FRET efficiency (control siRNA, 0 min EGF): 4.34% | FRET efficiency (β1 integrin siRNA, 0 min EGF): 3.85% | increase in FRET efficiency 3 min after EGF against 0 min (control cells): 40%
